This note sets out measurements from the supplement of paper PMC10126150.

± gives the standard deviation of the averaged measurements.

For this data set, the system named is ATP. The data set is described as follows: switch fluorescence ratio, 500 uM ATP over buffer (Cy3 cluster intensity, sum of 5 cycles each) (fold (ratio)); higher = stronger signal-on switching upon ATP binding; sequences stand for … in TCGTCGGCAGCGTCAGATGTGTATAAGAGACAGTTTTTTTTTTTTTTTTTTTTTTTTT…TC. The following applies: aptamer strand: ATP DNA aptamer (quencher-CACCTGGGGGAGTATTGCGGAGGAAGG + anchor), 100 nM annealed; ATP concentration: 500 uM. The procedure, abridged: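 Clusters with intensities outside 100-1000 RFU were excluded. The remaining Cy3-labelled switching-strand clusters on a modified Illumina MiSeq flow-cell had been annealed to 100 nM quencher-labelled ATP aptamer and imaged in selection buffer, then after 15 min with 500 uM ATP at 22 °C, for five cycles separated by NaOH stripping and re-annealing. The fluorescence ratio, averaged per switch-domain sequence, is each cluster's summed target-cycle Cy3 intensity over its summed buffer-cycle Cy3 intensity.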
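Note: ATP exposure 15 min at 22 °C before imaging.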

Regarding GGGACATTAT, the switch fluorescence ratio was found to be 1 ± 0.02. For GGGACCTTTT the value was 1 ± 0.032; for GGGACGGGTG, 1.02 ± 0.025; for GGGACTATCA, 0.982 ± 0.014.

Consider GGGACTATGA, for which the switch fluorescence ratio turned out to be 1 ± 0.021.

Regarding GGGACTGCGT, the switch fluorescence ratio worked out at 0.9624 ± 0.0072. For the sequence GGGACTTAAC, the switch fluorescence ratio turned out to be 1.03 ± 0.014. Consider GGGACTTTAC, for which the switch fluorescence ratio is 1.18 ± 0.038. For the sequence GGGACTTTTG, the switch fluorescence ratio amounted to 0.986 ± 0.15.

As to GGGAGAGGGG, the switch fluorescence ratio worked out at 0.987 ± 0.02. As to GGGAGCAAGG, the switch fluorescence ratio worked out at 1.1 ± 0.018.

In the case of GGGAGCCACG, the switch fluorescence ratio came to 1.02 ± 0.036. With GGGAGCCCGG the figure was 0.989 ± 0.038. With GGGAGCCGGG the figure was 1.03 ± 0.015. With GGGAGCCTAT the figure was 1 ± 0.042; with GGGAGCGTTG, 1.01 ± 0.016.

As to GGGAGGCAGG, the switch fluorescence ratio is 1.07 ± 0.029. Turning to GGGAGGCATG, the switch fluorescence ratio was 0.936 ± 0.13. Take GGGAGGGAGG: the switch fluorescence ratio was 0.988 ± 0.021. In the case of GGGAGGGCA, the switch fluorescence ratio stood at 1 ± 0.011.

Regarding GGGAGGGCAA, the switch fluorescence ratio was 0.986 ± 0.013. With GGGAGGGGGC the figure was 1.01 ± 0.075; with GGGAGGGGTG, 1.02 ± 0.064; with GGGAGGGTGA, 0.99 ± 0.025. For GGGAGGGTGT the value was 1.09 ± 0.02; for GGGAGGTCGG, 1.01 ± 0.025. For GGGAGGTTGT the value was 0.966 ± 0.028; for GGGAGTACGT, 1 ± 0.019. As for GGGAGTAGCG, the switch fluorescence ratio stood at 0.997 ± 0.022. For GGGAGTAGGG the value was 0.998 ± 0.015; for GGGAGTATAG, 0.9907 ± 0.0089. Take GGGAGTATAT: the switch fluorescence ratio was 0.992 ± 0.016.

With GGGAGTCCAA, the switch fluorescence ratio amounted to 0.995 ± 0.019.

GGGAGTCTTG: the switch fluorescence ratio stood at 0.987 ± 0.015.

Turning to GGGAGTGGGC, the switch fluorescence ratio was 0.87939 ± 0.00069.

For the sequence GGGATAAAAT, the switch fluorescence ratio came to 1.01 ± 0.017.

For the sequence GGGATAATTT, the switch fluorescence ratio worked out at 0.988 ± 0.017.

GGGATAGAGA: the switch fluorescence ratio amounted to 1.02 ± 0.03. GGGATAGATC: the switch fluorescence ratio turned out to be 1.05 ± 0.016. For the sequence GGGATATATT, the switch fluorescence ratio stood at 0.9914 ± 0.0074. For GGGATCAGCT the value was 1.006 ± 0.0046; for GGGATCCATG, 1.01 ± 0.019; for GGGATCGCTA, 1 ± 0.018. For GGGATCTGGT the value was 1.002 ± 0.0098.

In the case of GGGATGATAG, the switch fluorescence ratio came out at 0.959 ± 0.032. Regarding GGGATGCCAA, the switch fluorescence ratio came to 0.9794 ± 0.0018. Turning to GGGATGCCCT, the switch fluorescence ratio was found to be 1.01 ± 0.027. For GGGATGGATA the value was 1.03 ± 0.085. For GGGATGTTAA the value was 0.976 ± 0.038; for GGGATGTTAT, 1.03 ± 0.014. For GGGATTGAAT the value was 1.01 ± 0.032; for GGGATTGAGC, 1.03 ± 0.041; for GGGATTGAGG, 1.01 ± 0.032. On to GGGATTGTTG, for which the switch fluorescence ratio is 0.995 ± 0.041. For GGGATTTGAT the value was 0.98 ± 0.028; for GGGATTTTTA, 0.987 ± 0.018. With GGGCAAGGAT the figure was 1.015 ± 0.0028; with GGGCAAGGCG, 1.006 ± 0.0092; with GGGCAAGGTT, 0.9682 ± 0.0065. For GGGCAATCGT the value was 1.021 ± 0.0063; for GGGCAATGAG, 1.09 ± 0.023; for GGGCACGTGG, 0.995 ± 0.035. Consider GGGCAGAAAG, for which the switch fluorescence ratio is 1.01 ± 0.075. As for GGGCAGAGGC, the switch fluorescence ratio is 1.06 ± 0.029. For the sequence GGGCAGGCTG, the switch fluorescence ratio turned out to be 1 ± 0.023.

As to GGGCAGGTTC, the switch fluorescence ratio was 1.08 ± 0.085.

As for GGGCAGTTTT, the switch fluorescence ratio amounted to 0.991 ± 0.023. With GGGCATAGAT the figure was 1.03 ± 0.05; with GGGCATAGGA, 1.03 ± 0.097.

Regarding GGGCATATGG, the switch fluorescence ratio was determined as 1.05 ± 0.015.

In the case of GGGCATCGGG, the switch fluorescence ratio was determined as 0.991 ± 0.013. For the sequence GGGCATGAAT, the switch fluorescence ratio is 0.965 ± 0.016. For GGGCATGCAG the value was 0.966 ± 0.018. For GGGCATGCGT, the switch fluorescence ratio amounted to 0.973 ± 0.042. On to GGGCATGTTA, for which the switch fluorescence ratio is 0.9692 ± 0.0032. With GGGCATTGAA the figure was 0.9895 ± 0.0022; with GGGCATTGCG, 0.9667 ± 0.0091; with GGGCATTGTT, 1.02 ± 0.043. For GGGCCAGGGC the value was 1.02 ± 0.02; for GGGCCAGTGC, 1.03 ± 0.043; for GGGCCAGTTG, 1.0149 ± 0.00024. For GGGCCCGGGT the value was 0.994 ± 0.037; for GGGCCCTGGG, 0.994 ± 0.059. For GGGCCCTTTT, the switch fluorescence ratio turned out to be 0.976 ± 0.019. With GGGCCGGTTT the figure was 1 ± 0.026; with GGGCCTGGTA, 0.973 ± 0.03; with GGGCCTTGAG, 1.031 ± 0.008. With GGGCCTTTAT the figure was 1.017 ± 0.0089; with GGGCGATGGG, 1.02 ± 0.084. On to GGGCGCCCCA, for which the switch fluorescence ratio is 0.976 ± 0.013. As for GGGCGCCCCC, the switch fluorescence ratio was 1.08 ± 0.14. With GGGCGCGTAT the figure was 1.03 ± 0.045; with GGGCGGGCTG, 1.006 ± 0.0084. On to GGGCGGGTCT, for which the switch fluorescence ratio amounted to 1.01 ± 0.046.

In the case of GGGCGGGTTG, the switch fluorescence ratio turned out to be 1 ± 0.0036. With GGGCGGTCTT, the switch fluorescence ratio turned out to be 1.06 ± 0.097.

For GGGCGGTTTT, the switch fluorescence ratio came out at 0.993 ± 0.043. With GGGCGTAAGG, the switch fluorescence ratio was determined as 1.01 ± 0.047. GGGCGTGGTT: the switch fluorescence ratio came out at 0.965 ± 0.017. On to GGGCGTGTTT, for which the switch fluorescence ratio came out at 1 ± 0.031. On to GGGCGTTCTG, for which the switch fluorescence ratio stood at 1.04 ± 0.023.

With GGGCGTTTCA, the switch fluorescence ratio was found to be 1.02 ± 0.02. For GGGCTAAAGA the value was 1.01 ± 0.013; for GGGCTAAGAG, 1.05 ± 0.038; for GGGCTAAGGC, 0.9923 ± 0.0037. With GGGCTAGGCT, the switch fluorescence ratio was determined as 0.9684 ± 0.006. Consider GGGCTAGGGA, for which the switch fluorescence ratio is 0.972 ± 0.041. In the case of GGGCTAGTGG, the switch fluorescence ratio came to 1.02 ± 0.036.

With GGGCTAGTTC, the switch fluorescence ratio was determined as 1.05 ± 0.077. As to GGGCTCCATG, the switch fluorescence ratio was determined as 0.9825 ± 0.0044. For GGGCTGGATG the value was 0.9932 ± 0.0047; for GGGCTGGGTA, 0.993 ± 0.018; for GGGCTGGTTT, 0.981 ± 0.02.

As to GGGCTTAAGG, the switch fluorescence ratio was determined as 0.97 ± 0.015. Regarding GGGCTTGGAG, the switch fluorescence ratio worked out at 1.012 ± 0.00086. For GGGCTTGGCT the value was 0.9851 ± 0.0065; for GGGGAAAAGG, 1 ± 0.017. With GGGGAAAATA the figure was 1.007 ± 0.0048; with GGGGAAACAA, 0.99 ± 0.024. With GGGGAAACAT the figure was 1.08 ± 0.013.
